# According to patent US20140288000A1 (University of California, published 2014):
# Residue numbers refer to the chain shown, from its start.
# B1: plasmin-inhibiting polypeptide comprising the amino acid sequence set forth in SEQ ID NO:4 (designed binder)
# chain: NAEICLLPLDTGPCRARLLRYYYDRYTQSCRQFLYGGCEGNANNFYTWEACDDACWRIEKVPK
# B2: plasmin-inhibiting polypeptide comprising the amino acid sequence set forth in SEQ ID NO:6 (designed binder)
# chain: B1 chain with T11Y
# B3: plasmin-inhibiting polypeptide comprising the amino acid sequence set forth in SEQ ID NO:5 (designed binder)
# chain: NAEICLLPLDYGPCRARLLRYYYDRYTQSCRQFLYGGCEGNANNFYTWEACDDACWRIEK
# B4: plasmin-inhibiting polypeptide comprising the amino acid sequence set forth in SEQ ID NO:3 (designed binder)
# chain: B3 chain with Y11T
# Target: human plasmin (human, UniProt P00747 97-810, limits assumed)
# Experiment: cell-based or functional assay
# Chain of human plasmin (P00747 97-810 limits assumed): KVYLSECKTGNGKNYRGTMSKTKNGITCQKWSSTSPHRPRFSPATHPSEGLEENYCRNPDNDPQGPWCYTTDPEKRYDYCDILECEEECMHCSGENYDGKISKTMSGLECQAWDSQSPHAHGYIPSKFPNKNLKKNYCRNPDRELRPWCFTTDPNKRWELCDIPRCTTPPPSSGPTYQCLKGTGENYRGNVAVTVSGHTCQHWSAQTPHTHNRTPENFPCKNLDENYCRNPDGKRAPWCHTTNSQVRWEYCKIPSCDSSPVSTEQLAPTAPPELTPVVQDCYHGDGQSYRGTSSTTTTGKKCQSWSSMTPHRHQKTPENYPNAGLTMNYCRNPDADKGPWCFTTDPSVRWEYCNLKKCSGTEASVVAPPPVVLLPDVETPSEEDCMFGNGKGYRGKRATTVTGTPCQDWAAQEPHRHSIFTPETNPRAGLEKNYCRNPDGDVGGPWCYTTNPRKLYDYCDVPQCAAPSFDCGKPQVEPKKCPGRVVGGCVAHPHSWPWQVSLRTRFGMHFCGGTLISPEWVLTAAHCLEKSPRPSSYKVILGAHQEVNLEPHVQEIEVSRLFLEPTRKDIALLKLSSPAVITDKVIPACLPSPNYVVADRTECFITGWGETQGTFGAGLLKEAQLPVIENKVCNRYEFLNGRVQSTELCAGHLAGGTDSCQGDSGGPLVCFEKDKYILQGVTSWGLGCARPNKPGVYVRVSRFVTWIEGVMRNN
row,"IC50 (nM), inhibition of plasmin activity on chromogenic substrate S2251 [nM]",Binder
1,0.8,B1
2,1.8,B2
3,3.4,B3
4,1.8,B4
